The term Kd denotes a measure of binding affinity in units of concentration.

Data on 1 molecule can be found in patent US6630345B2 (New York University, dated 2003).

For this assay, the target named is recombinant full-length calcium-independent receptor of α-latrotoxin (CIRL) expressed in COS cells (rat).
Chain of recombinant full-length calcium-independent receptor of α-latrotoxin (CIRL) expressed in COS cells (rat) (O88917 other isoform, or with tags, fused parts or gaps limits assumed): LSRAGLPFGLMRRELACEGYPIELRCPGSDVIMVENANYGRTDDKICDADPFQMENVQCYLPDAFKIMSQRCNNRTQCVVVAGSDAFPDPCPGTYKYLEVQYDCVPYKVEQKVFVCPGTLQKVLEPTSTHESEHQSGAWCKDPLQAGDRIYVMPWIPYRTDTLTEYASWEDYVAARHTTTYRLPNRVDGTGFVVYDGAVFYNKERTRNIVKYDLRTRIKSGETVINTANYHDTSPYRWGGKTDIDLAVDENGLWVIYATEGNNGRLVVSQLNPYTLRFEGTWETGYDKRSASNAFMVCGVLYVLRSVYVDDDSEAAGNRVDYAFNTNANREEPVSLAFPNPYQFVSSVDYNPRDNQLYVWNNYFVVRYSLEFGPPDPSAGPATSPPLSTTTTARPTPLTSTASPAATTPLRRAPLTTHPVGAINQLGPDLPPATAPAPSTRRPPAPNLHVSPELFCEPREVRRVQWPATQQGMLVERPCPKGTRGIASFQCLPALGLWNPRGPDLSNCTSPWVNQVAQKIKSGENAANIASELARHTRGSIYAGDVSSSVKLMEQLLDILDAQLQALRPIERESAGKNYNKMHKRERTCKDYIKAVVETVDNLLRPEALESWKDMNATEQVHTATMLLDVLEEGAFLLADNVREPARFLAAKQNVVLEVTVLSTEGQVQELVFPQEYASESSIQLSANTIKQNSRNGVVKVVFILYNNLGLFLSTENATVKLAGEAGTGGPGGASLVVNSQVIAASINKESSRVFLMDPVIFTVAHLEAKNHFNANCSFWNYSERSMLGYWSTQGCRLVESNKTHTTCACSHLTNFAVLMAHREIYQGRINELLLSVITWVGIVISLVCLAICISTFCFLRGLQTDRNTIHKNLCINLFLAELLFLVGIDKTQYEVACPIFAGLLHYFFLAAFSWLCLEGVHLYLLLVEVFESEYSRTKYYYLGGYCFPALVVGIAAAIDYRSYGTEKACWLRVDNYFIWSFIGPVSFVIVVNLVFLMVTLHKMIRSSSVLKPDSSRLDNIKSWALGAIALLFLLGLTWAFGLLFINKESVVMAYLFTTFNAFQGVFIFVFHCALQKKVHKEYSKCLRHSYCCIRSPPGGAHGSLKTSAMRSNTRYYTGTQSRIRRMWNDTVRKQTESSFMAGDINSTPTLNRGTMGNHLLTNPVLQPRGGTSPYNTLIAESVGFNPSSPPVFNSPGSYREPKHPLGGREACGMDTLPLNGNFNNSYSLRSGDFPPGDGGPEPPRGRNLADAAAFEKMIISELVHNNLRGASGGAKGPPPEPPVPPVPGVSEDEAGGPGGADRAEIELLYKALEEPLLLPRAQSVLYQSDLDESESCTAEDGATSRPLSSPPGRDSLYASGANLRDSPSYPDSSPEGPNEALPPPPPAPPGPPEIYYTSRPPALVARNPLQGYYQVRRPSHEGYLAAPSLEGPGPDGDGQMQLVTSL

B1: α-latrotoxin (ligand)
chain: EGEDLTLEEKAEICSELELQQKYVDIASNIIGDLSSLPIAGKIAGTIAAAAMTATHVASGRLDIEQTLLGCSDLPFDQIKEVLENRFNEIDRKLDSHSAALEEITKLVEKSISVVEKTRKQMNKRFDEVMKSIQDAKVSPIISKINNFARYFDTEKERIRGLKLNDYILKLEEPNGILLHFKESRTPTDDSLQAPLFSIIEEGYAVPKSIDDELAFKVLYALLYGTQTYVSVMFFLLEQYSFLANHYYEKGYLEKYDEYFNSLNNVFLDFKSSLVGTGTSNNEGLLDRVLQVLMTVKNSEFLGLEKNGVDEMLNEKINLFNKIKEEIEGKQKMTLSETPENFAQISFDKDITTPIGDWRDGREVRYAVQYASETLFSKISHWSDPVSVREKACPTLRMPVDQTRRNVLVFRKFDSSKPQLVGEITPYLSNFIDIDRDLYNAASNPDSAVGFKEFTKLNYDGANIRATFDHGRTVFHAAAKSGNDKIMFGLTFLAKSTELNQPDKKGYTPIHVAADSGNAGIVNLLIQRGVSINSKTYHFLQTPLHLAAQRGFVTTFQRLMESPEININERDKDGFTPLHYAIRGGERILEAFLNQISIDVNAKSNTGLTPFHLAIIKNDWPVASTLLGSKKVDINAVDENNITALHYAAILGYLETTKQLINLKEINANVVSSPGLLSALHYAILYKHDDVASFLMRSSNVNVNLKALGGITPLHLAVIQGRKQILSLMFDIGVNIEQKTDEKYTPLHLAAMSKYPELIQILLDQGSNFEAKTNSGATPLHLATFKGKSQAALILLNNEVNWRDTDENGQMPIHGAAMTGLLDVAQAIISIDATVVDIEDKNSDTPLNLAAQNSHIDVIKYFIDQGADINTRNKKGLAPLLAFSKKGNLDMVKYLFDKNANVYIADNDGMNFFYYAVQNGHLNIVKYAMSEKDKFEWSNTDNNRRDECPNEECAISHFAVCDAVQFDRIEIVKYFVGTLGNFAICGPLHQAARYGHLDIVKYLVEEEFLSVDGSKTDTPLCYASENGHFTVVQYLVSNGAKVNHDCGNGMTAIDKAITKNHLQVVQFLAANGVDFRRKNSRGTTPFLTAVAENALHIAEYLIREKRQDININEQNVDKDTALHLAVYYKNLQMIKLLIKYGIDVTIRNAYDKTALDIAIDAKFSNIVEYLKTKSGKFRR
modifications: radioactively labeled with 125I by chloramine T procedure in the binding and immunoprecipitation assays; coupled to Sepharose in the affinity experiments
Regarding B1, the Kd was 0.16 nM.
